Target: T1, soluble human FcRn (human, UniProt P55899 24-290; P61769 21-119)
T1 construct: Complex of FcRn and beta 2-microglobulin; the secreted protein lacks them
Assay: Biacore, human FcRn

T1 sequence (P55899 24-290 limits assumed, chain 1 of 2): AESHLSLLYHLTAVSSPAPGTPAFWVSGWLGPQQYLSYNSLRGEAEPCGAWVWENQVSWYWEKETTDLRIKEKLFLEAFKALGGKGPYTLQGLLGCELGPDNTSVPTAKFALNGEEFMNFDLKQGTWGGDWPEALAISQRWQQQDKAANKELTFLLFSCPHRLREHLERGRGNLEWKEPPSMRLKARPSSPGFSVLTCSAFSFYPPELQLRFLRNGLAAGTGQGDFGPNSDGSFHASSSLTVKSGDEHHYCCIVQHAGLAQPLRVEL
T1 sequence (P61769 21-119 limits assumed, chain 2 of 2): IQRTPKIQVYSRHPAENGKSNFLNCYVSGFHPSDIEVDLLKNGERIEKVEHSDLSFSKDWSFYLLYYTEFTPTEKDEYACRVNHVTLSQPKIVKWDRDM

Binder	fold binding against TOCILIZUMAB-IgG1 [times]
TOCILIZUMAB-M58 (antibody, IgG2, IgG2-derived constant region (WT-SKSC with further changes, Gly446 and Lys447 deleted); also called WT-M58/WT-kappa) heavy: QVQLQESGPGLVRPSQTLSLTCTVSGYSITSDHAWSWVRQPPGRGLEWIGYISYSGITTYNPSLKSRVTMLRDTSKNQFSLRLSSVTAADTAVYYCARSLARTTAMDYWGQGSLVTVSSASTKGPSVFPLAPSSKSTSGGTAALGCLVKDYFPEPVTVSWNSGALTSGVHTFPAVLQSSGLYSLSSVVTVPSSNFGTQTYTCNVDHKPSNTKVDKTVERKSCVECPPCPAPPVAGPSVFLFPPKPKDTLMISRTPEVTCVVVDVSQEDPEVQFNWYVDGVEVHNAKTKPREEQFNSTFRVVSVLTVVHQDWLNGKEYKCKVSNKGLPAPIEKTISKTKGQPREPQVYTLPPSQEEMTKNQVSLTCLVKGFYPSDIAVEWESNGQPENNYKTTPPMLDSDGSFFLYSKLTVDKSRWQEGNVFSCSVMHEALHNHYTQKSLSLSP light: not shown	~1.4
TOCILIZUMAB-M73 (antibody, WT-M58 with asparagine 434 (EU) changed to alanine; also called WT-M73/WT-kappa) heavy: QVQLQESGPGLVRPSQTLSLTCTVSGYSITSDHAWSWVRQPPGRGLEWIGYISYSGITTYNPSLKSRVTMLRDTSKNQFSLRLSSVTAADTAVYYCARSLARTTAMDYWGQGSLVTVSSASTKGPSVFPLAPSSKSTSGGTAALGCLVKDYFPEPVTVSWNSGALTSGVHTFPAVLQSSGLYSLSSVVTVPSSNFGTQTYTCNVDHKPSNTKVDKTVERKSCVECPPCPAPPVAGPSVFLFPPKPKDTLMISRTPEVTCVVVDVSQEDPEVQFNWYVDGVEVHNAKTKPREEQFNSTFRVVSVLTVVHQDWLNGKEYKCKVSNKGLPAPIEKTISKTKGQPREPQVYTLPPSQEEMTKNQVSLTCLVKGFYPSDIAVEWESNGQPENNYKTTPPMLDSDGSFFLYSKLTVDKSRWQEGNVFSCSVMHEALHAHYTQKSLSLSP light: not shown	~3.8

— patent WO2010106812A1 (dated 2010)
